T1: human NFU1 (residues 57-254) with N-terminal His-tag (human, UniProt Q9UMS0 57-254)
T1 construct: Used as apo form or chemically reconstituted holo form carrying a [4Fe-4S] cluster; the assay's format says which; also called apo-NFU1; holo-NFU1; source: E. coli BL21 (DE3), pET-Duet1, purified (HisTrap HP, Superdex 200 gel filtration)
T1 sequence (looked up): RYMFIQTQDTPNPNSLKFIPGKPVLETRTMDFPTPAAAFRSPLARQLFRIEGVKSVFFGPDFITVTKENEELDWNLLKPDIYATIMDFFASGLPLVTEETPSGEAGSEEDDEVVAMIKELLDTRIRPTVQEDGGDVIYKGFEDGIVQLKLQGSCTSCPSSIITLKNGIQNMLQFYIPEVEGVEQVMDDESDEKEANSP

T2: human NFU1 (residues 57-254) with N-terminal His-tag (human, UniProt Q9UMS0 57-254)
T2 chain: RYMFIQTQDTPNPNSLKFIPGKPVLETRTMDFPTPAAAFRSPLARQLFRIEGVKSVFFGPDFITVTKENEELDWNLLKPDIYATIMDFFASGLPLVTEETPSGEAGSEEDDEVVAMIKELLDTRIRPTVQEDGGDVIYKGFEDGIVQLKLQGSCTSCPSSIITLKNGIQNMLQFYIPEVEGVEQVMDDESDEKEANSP

T3: human GLRX5, protein used for NMR (human, UniProt Q86SX6 32-157)
T3 construct: human mitochondrial monothiol glutaredoxin GLRX5; Used as apo form with 5 mM GSH, or chemically reconstituted with a [2Fe-2S] cluster; the assay's format says which; also called apo-GLRX5; holo-GLRX5; source: produced as previously reported (Banci et al., 2014)
T3 sequence (looked up): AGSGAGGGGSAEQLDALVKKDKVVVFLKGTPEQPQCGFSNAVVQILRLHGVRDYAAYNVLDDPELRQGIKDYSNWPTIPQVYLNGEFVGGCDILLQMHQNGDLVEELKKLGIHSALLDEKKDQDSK

B1: human GLRX5 (residues 32-157) with N-terminal His-tag (natural protein, UniProt Q86SX6 32-157, looked up)
chain: AGSGAGGGGSAEQLDALVKKDKVVVFLKGTPEQPQCGFSNAVVQILRLHGVRDYAAYNVLDDPELRQGIKDYSNWPTIPQVYLNGEFVGGCDILLQMHQNGDLVEELKKLGIHSALLDEKKDQDSK
notes: Chemically reconstituted with a [2Fe-2S] cluster (holo form, >85% holo); holo-GLRX5 alone eluted as a homodimer; also called holo-GLRX5; source: E. coli BL21 (DE3), pET-Duet1, purified (HisTrap HP, Superdex 200 gel filtration)

Experiments:
[1] = molecular target: T1, human NFU1 (residues 57-254) with …; test: MST; 200 nM NT-647-labeled BOLA1 or BOLA3, titrated with unlabeled apo-NFU1 (200 µM to 6.1 nM); buffer T (50 mM KPi pH 7.4, 150 mM NaCl, 5% glycerol, 0.05 mg/ml BSA, 0.05% Tween20), 21°C, anaerobic; settings: both partners purified
[2] = molecular target: B1; test: SEC; gel filtration in buffer R of holo-GLRX5 alone, co-reconstituted equimolar GLRX5-BOLA1 and holo-GLRX5-BOLA3, recorded at 420 nm and 280 nm; fractions analysed by Coomassie and immunostaining; settings: both partners purified
[3] = molecular target: T2, human NFU1 (residues 57-254) with …; test: MST; apo-NFU1, anaerobic
[4] = molecular target: T2, human NFU1 (residues 57-254) with …; test: MST; holo-NFU1, anaerobic
[5] = molecular target: T3, human GLRX5, protein used for NMR; test: NMR titration; 1H-15N HSQC; 15N-labeled BOLA1 or BOLA3 titrated with unlabeled apo-GLRX5 and vice versa; 15N R1 and R2 relaxation on the final mixtures; degassed buffer N (50 mM phosphate pH 7, 5 mM GSH, 5 mM DTT), 10% D2O, 298 K; settings: both partners purified
[6] = molecular target: T1, human NFU1 (residues 57-254) with …; test: MST; 200 nM NT-647-labeled BOLA1 or BOLA3, titrated with unlabeled chemically reconstituted holo-NFU1 carrying a [4Fe-4S] cluster (200 µM to 6.1 nM); buffer T, 21°C, anaerobic; settings: both partners purified
[7] = molecular target: the molecule itself; test: SEC; gel filtration in buffer R of holo-GLRX5 alone, co-reconstituted equimolar GLRX5-BOLA1 and holo-GLRX5-BOLA3, recorded at 420 nm and 280 nm; fractions analysed by Coomassie and immunostaining

Binder	Kd [1]	Kd [3]	stoichiometry N [5]	further results
human BOLA1 (residues 30-137) with N-terminal His-tag (natural protein, UniProt Q9Y3E2 30-137, looked up, Labelled with NT-647 dye in MST; source: E. coli BL21 (DE3), pET-Duet1, purified (HisTrap HP, Superdex 200 gel filtration)) GPVEAAIRTKLEEALSPEVLELRNESGGHAVPPGSETHFRVAVVSSRFEGLSPLQRHRLVHAALAEELGGPVHALAIQARTPAQWRENSQLDTSPPCLGGNKKTLGTP	~3 µM	3.59 µM	–	binding result [2]: binds; Kd [4]: 2.14 µM
human BOLA3 (residues 27-107), NMR construct (natural protein, UniProt Q53S33 27-107, looked up, human BOLA3, residues 27-107, construct for NMR; 15N- or 13C,15N-labelled where observed by NMR; His-tag cleaved by tobacco etch virus protease; also called 15N-labeled BOLA3; source: E. coli BL21(DE3)GOLD, pET15 vector, purified; not shown: His-tag, N-terminal, cleaved) ATQTEGELRVTQILKEKFPRATAIKVTDISGGCGAMYEIKIESEEFKEKRTVQQHQMVNQALKEEIKEMHGLRIFTSVPKR	–	–	1	–
human BOLA3 (residues 25-107) with N-terminal His-tag (natural protein, UniProt Q53S33 25-107, looked up, Labelled with NT-647 dye in MST; source: E. coli BL21 (DE3), pET-Duet1, purified (HisTrap HP, Superdex 200 gel filtration)) MFATQTEGELRVTQILKEKFPRATAIKVTDISGGCGAMYEIKIESEEFKEKRTVQQHQMVNQALKEEIKEMHGLRIFTSVPKR	~3 µM	3.57 µM	–	Kd [6]: 0.8 µM
B1	–	–	–	stoichiometry N [7]: 2
human BOLA1 (residues 21-137), NMR construct (natural protein, UniProt Q9Y3E2 21-137, looked up, human BOLA1, residues 21-137, construct for NMR; 15N- or 13C,15N-labelled where observed by NMR; His-tag cleaved by tobacco etch virus protease; also called 15N-labeled BOLA1; source: E. coli BL21(DE3)GOLD, pETG20A vector, purified; not shown: His-tag, N-terminal, cleaved) QGSAGSGAIGPVEAAIRTKLEEALSPEVLELRNESGGHAVPPGSETHFRVAVVSSRFEGLSPLQRHRLVHAALAEELGGPVHALAIQARTPAQWRENSQLDTSPPCLGGNKKTLGTP	–	–	1	–

— publication PMC5014550, “Mitochondrial Bol1 and Bol3 function as assembly factors for specific iron-sulfur proteins” (eLife, 2016)
